Experiment [1] addresses MIWI (PIWIL1), mouse, 3×Flag–SNAP-tagged recombinant, loaded with a synthetic piRNA (MIWI piRISC) (mouse) (UniProt Q9JMB7).
Experiment [2] concerns the target T1, MIWI (PIWIL1), mouse, 3×Flag–SNAP-tagged recombinant, loaded with a synthetic piRNA (MIWI piRISC) (mouse, UniProt Q9JMB7 1-862, methylarginines (positions in Extended Data Fig. 1h)).
T1 construct: Mouse MIWI (PIWIL1); cDNA from the Mammalian Gene Collection; not shown: 3×Flag, N-terminal, kept; SNAP, N-terminal, kept
T1 sequence (looked up): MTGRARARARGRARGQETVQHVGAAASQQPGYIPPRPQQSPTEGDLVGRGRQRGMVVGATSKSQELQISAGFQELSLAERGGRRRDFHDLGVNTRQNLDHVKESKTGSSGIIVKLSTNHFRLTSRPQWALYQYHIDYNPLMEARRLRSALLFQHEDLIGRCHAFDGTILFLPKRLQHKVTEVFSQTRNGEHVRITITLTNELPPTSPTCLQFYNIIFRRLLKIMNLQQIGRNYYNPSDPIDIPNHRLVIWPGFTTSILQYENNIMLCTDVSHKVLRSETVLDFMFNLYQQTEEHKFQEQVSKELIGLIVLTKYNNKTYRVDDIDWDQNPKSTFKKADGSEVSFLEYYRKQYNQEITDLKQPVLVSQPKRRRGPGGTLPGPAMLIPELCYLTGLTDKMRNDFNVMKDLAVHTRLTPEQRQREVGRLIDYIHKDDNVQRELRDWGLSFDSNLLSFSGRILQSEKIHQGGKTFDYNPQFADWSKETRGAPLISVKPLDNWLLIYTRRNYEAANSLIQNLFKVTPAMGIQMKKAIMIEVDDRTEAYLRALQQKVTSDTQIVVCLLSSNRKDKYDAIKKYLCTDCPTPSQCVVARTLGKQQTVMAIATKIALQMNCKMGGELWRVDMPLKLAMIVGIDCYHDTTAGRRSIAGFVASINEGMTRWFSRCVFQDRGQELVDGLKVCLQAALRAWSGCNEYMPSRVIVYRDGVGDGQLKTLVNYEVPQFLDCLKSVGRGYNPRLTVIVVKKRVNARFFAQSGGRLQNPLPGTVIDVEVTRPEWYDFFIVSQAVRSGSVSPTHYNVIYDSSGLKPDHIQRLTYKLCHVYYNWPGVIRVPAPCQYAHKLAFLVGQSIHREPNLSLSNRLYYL
The experiment in a line: enzyme kinetics titration (pre-steady-state target-cleavage rate k_burst against GTSF1 concentration); k_burst of MIWI piRISC measured at 1–5,000 nM GTSF1 and fit to kburst=kpot[GTSF1]/(Kd+[GTSF1]); Kd is for the MIWI piRISC–target RNA ternary complex. The following applies: both partners purified.

In the case of “BmGtsf1-like, Bombyx mori, V5SBP-tagged purified recombinant (natural protein)”, in experiment [1], the amount of target RNA cleaved by MIWI piRISC with 100 nM recombinant GTSF protein (fold increase) was found to be 2.6 fold.

B1: Gametocyte specific factor 1 (GTSF1), mouse, wild type, purified recombinant (natural protein, UniProt Q9DAN6 1-167, looked up)
chain: MEDTYIDSLDPEKLLQCPYDKNHQIRACRFPYHLIKCRKNHPDVANKLATCPFNARHQVPRAEISHHISSCDDKSCIEQDVVNQTRNLGQETLAESTWQCPPCDEDWDKDLWEQTSTPFVWGTASFCGNNSPANNIVMEHKSNLASGMRVPKSLPYVLPWKNNGNAQ
notes: Mouse GTSF1, tandem CHHC-type zinc-finger protein, printed mass 19,083 Da; cDNA synthesized at Twist Biosciences; Grown with 1 uM ZnSO4 (zinc-finger protein); also called wild-type GTSF1; MmGtsf1; source: E. coli Rosetta-Gami 2 (pCold-GST), purified (glutathione Sepharose, HRV3C cleavage, HiTrap Q)
Broadly, the Kd is the concentration at which binding is half-saturated. B1: the Kd in experiment [2] turned out to be 8 nM.

B2: GTSF1(W98A/W107A/W112A), mouse, PIWI-interacting mutant, purified recombinant (natural protein, UniProt Q9DAN6 1-167, looked up)
chain: MEDTYIDSLDPEKLLQCPYDKNHQIRACRFPYHLIKCRKNHPDVANKLATCPFNARHQVPRAEISHHISSCDDKSCIEQDVVNQTRNLGQETLAESTAQCPPCDEDADKDLAEQTSTPFVWGTASFCGNNSPANNIVMEHKSNLASGMRVPKSLPYVLPWKNNGNAQ
notes: Mouse GTSF1 with W98A, W107A and W112A; expression vector synthesized at Twist Biosciences; also called PIWI-int mutant GTSF1; source: E. coli Rosetta-Gami 2 (pCold-GST), purified (glutathione Sepharose, HRV3C cleavage, HiTrap Q)
For the molecule B2, the Kd in experiment [2] came out at 500 nM.

The record behind these values is PMC9385479, “GTSF1 accelerates target RNA cleavage by PIWI-clade Argonaute proteins” (Nature, 2022).
